Measurements as given in article PMC7618776, “Direct recruitment of Mis18 to interphase spindle pole bodies promotes CENP-A chromatin assembly” (Current biology : CB, 2023).

Molecular target: T1, 6His-msfGFP-TEV-Mis18FL (S. pombe, UniProt Q9P802 1-194)
T1 construct: Mis18, S. pombe, full length (residues 1-194); Cloned into the vector pET His6 msfGFP TEV (9GFP, Addgene 48287); also called GFP-Mis18; 6His-GFP-Mis18FL; source: E. coli BL21 Gold, purified (HisTrap HP, SEC); not shown: msfGFP, N-terminal, kept
T1 sequence (looked up): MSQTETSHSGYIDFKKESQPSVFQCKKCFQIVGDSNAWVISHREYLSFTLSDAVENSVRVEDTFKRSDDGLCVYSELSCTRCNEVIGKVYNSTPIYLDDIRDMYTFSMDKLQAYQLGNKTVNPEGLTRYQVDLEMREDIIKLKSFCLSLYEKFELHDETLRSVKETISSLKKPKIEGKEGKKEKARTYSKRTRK
Assay: pull-down; 6His-MBP-Sad1(2-167) or 6His-MBP on amylose resin mixed with candidate binding proteins, each protein at 5 μM; 20 mM HEPES pH 7.0, 150 mM NaCl, 1 mM TCEP, 0.01% Tween-20; 4°C 1 hr; Coomassie-stained SDS-PAGE
Conditions: both partners purified

B1: 6His-MBP-Sad1(2-167) (domain or fragment, S. pombe, UniProt Q09825 2-167, looked up)
chain: FTNTPVGGKRERQNGAHPAWSTLGANSAQIHQNTADLASKMHKLRYTKIRSPPTRVSIESITPKQRFPAPNFEQAYHSNIRYEQEESDNEEFENVVKNGHEASTNVFYESDGDDEEFVNEEYENSIDEESDDEGYSLNEDTTATNASFRYPMNQRSTRKSQFYSSK
notes: Cloned into the vector pET-6His-MBP-TEV (9C, Addgene 48286) by LIC; also called MBP-Sad1-N; source: E. coli BL21-CodonPlus (DE3)-RIPL, purified (TALON resin); not shown: His6, N-terminal, kept; MBP, N-terminal, kept
binding result: binds
